From the Human Domainome abundance scans (Beltran et al. 2025)
± gives the uncertainty stated by the source.

B1: Triacylglycerol hydrolase DDHD2, residues 389 to 447; numbered along this chain, O94830 (parent)
chain: TLEEDLKKLQLSEFFDIFEKEKVDKEALALCTDRDLQEIGIPLGPRKKILNYFSTRKNS

Variants of: B1
Assay: abundance fitness (aPCA) (normalised: wild type 0, dead -1); higher = more abundant; growth selection in yeast, the domain comes from the species named
Details: Homo sapiens
TLEEDLKKLQLSEFFDIFEKEKVDKEALALCTDRDLQEIGIPLGPRKRILNYFSTRKNS [K48R] showed an abundance fitness of 0.088 ± 0.064.
Work on TLEEDLKKLQLSEFFDIFEYEKVDKEALALCTDRDLQEIGIPLGPRKKILNYFSTRKNS [K20Y] yielded an abundance fitness of -0.324 ± 0.14.
For TLEEDLKKLQLSEFFDIFEKEKVDKEALALCTDRDLQEIGIPLGPRKKILNYISTRKNS [F53I], the abundance fitness was -0.085 ± 0.15.
TLEEDLKKLQLSEFFDIFEKEKVDKEALALCTDRDLQEIGIPLGPRKKILNYLSTRKNS [F53L] gave an abundance fitness of -0.324 ± 0.078.
TLEEDLKKLQLSEFFDIFEKEKVDKEALALCTDRDLQEIGIPLGPRKKILNYFMTRKNS [S54M] gave an abundance fitness of 0.17 ± 0.08.
Work on TLEEDLKKLQLSEFFDIFEKEKVDKEALALCTDRDLQEIGIPLGPRKKILNYFKTRKNS [S54K] yielded an abundance fitness of -0.071 ± 0.11.
TLEEDLKKLQLSEFFDIFEKEKVDKIALALCTDRDLQEIGIPLGPRKKILNYFSTRKNS [E26I] showed an abundance fitness of -0.219 ± 0.16.
Variant TLEEDLKKLQLSEFFDIFEKEKVDKMALALCTDRDLQEIGIPLGPRKKILNYFSTRKNS [E26M] has an abundance fitness of -0.072 ± 0.11.
With TLEEDLKKLQLSEFADIFEKEKVDKEALALCTDRDLQEIGIPLGPRKKILNYFSTRKNS [F15A] the abundance fitness was -0.005 ± 0.062.
Variant TLEEDLKKLQLSEFIDIFEKEKVDKEALALCTDRDLQEIGIPLGPRKKILNYFSTRKNS [F15I] has an abundance fitness of -0.513 ± 0.23.
TLEEDLKKLQLSEFWDIFEKEKVDKEALALCTDRDLQEIGIPLGPRKKILNYFSTRKNS [F15W] gave an abundance fitness of -0.311 ± 0.098.
Work on TLEEDLKKLQLSEFFDIFEKEKVDKEALALCTDRDLQEIGIPLGPRKKILNYFSTRKES [N58E] yielded an abundance fitness of 0.078 ± 0.088.
Work on TLEEDLKKLQLSEFFDIFEKEKVDKEALALCTDRDLQEIGIPLGPRKKILNYFSTRKMS [N58M] yielded an abundance fitness of 0.208 ± 0.12.
TLEEDLKKLQLSEFFDIFEKEKVDKEALALCTDRDLQEIGIPLGPRKKILNVFSTRKNS [Y52V] gave an abundance fitness of -0.26 ± 0.066.
With TLEEDLKKLQLSEFFDIFEKEKVDKEALALCTDRDLQEIGIPLGPRKKILNIFSTRKNS [Y52I] the abundance fitness was -0.387 ± 0.2.
With TLEEDLKKLQLSEFFDIFEKEKVDKEALAGCTDRDLQEIGIPLGPRKKILNYFSTRKNS [L30G] the abundance fitness was 0.452 ± 0.068.
With TLEEDLKKLQLSEFFDIYEKEKVDKEALALCTDRDLQEIGIPLGPRKKILNYFSTRKNS [F18Y] the abundance fitness was -0.293 ± 0.12.
For TLEEDLKKLQLSEFFDIREKEKVDKEALALCTDRDLQEIGIPLGPRKKILNYFSTRKNS [F18R], the abundance fitness was -0.685 ± 0.085.
For TLEEDLKKLQLSEFFDIFEKEKVDKEALALCTDRGLQEIGIPLGPRKKILNYFSTRKNS [D35G], the abundance fitness was -0.182 ± 0.074.
Variant TLEEDLKKLQLSEFFDIFEKEKVDKEALALCTSRDLQEIGIPLGPRKKILNYFSTRKNS [D33S] has an abundance fitness of -0.235 ± 0.07.
With TLEEDLKKLQLSEFFDIFEKEKVDKEALALCTDRDLQEIGIPLGDRKKILNYFSTRKNS [P45D] the abundance fitness was 0.017 ± 0.076.
TLEEDLKKLQLSEFFDIFEKEKVDKEALALCTDRDLQEIGIPLGCRKKILNYFSTRKNS [P45C] gave an abundance fitness of -0.205 ± 0.085.
In the case of TLEEDLKKLQLSEFFDIFEKEKVDKEALALCTDRDLQEIGIPLGPRKKILNYFSTVKNS [R56V], the abundance fitness is reported as 0.035 ± 0.064.
TLEEDLKKLQLSEFFDIFEKEKVDKEALALCTDRDLQEIGIPLGPRKKILNYFSTCKNS [R56C] showed an abundance fitness of -0.065 ± 0.1.
TLEEDLKKLQLSEFFDIFEKEKVDKEALALCTDRDLQEIGIPLGPRKKILNYFSTQKNS [R56Q] gave an abundance fitness of 0.143 ± 0.11.
TLENDLKKLQLSEFFDIFEKEKVDKEALALCTDRDLQEIGIPLGPRKKILNYFSTRKNS [E4N] gave an abundance fitness of -0.341 ± 0.12.
Variant TLEEDLKKLQLSEFFDIFEKEKVDKEALALCTDRDLQEIGIPLGPRKKDLNYFSTRKNS [I49D] has an abundance fitness of -0.125 ± 0.097.
Work on TLEEDLKKLQLSEFFDIFEKEKVDKEALALCTDRDLQEIGIPLGPRKKPLNYFSTRKNS [I49P] yielded an abundance fitness of -0.34 ± 0.11.
Work on TLEEDLKKLQLSEFFDIFEKEKVDKEALALCTDRDLQEIGIPLGPRKKIINYFSTRKNS [L50I] yielded an abundance fitness of 0.096 ± 0.11.
With TLEEDLKKLQLSEFFDIFEKEKVDKEALALCTDRDLQEIGIPLGPRKKIWNYFSTRKNS [L50W] the abundance fitness was -0.585 ± 0.1.
Variant TWEEDLKKLQLSEFFDIFEKEKVDKEALALCTDRDLQEIGIPLGPRKKILNYFSTRKNS [L2W] has an abundance fitness of -0.52 ± 0.082.
TAEEDLKKLQLSEFFDIFEKEKVDKEALALCTDRDLQEIGIPLGPRKKILNYFSTRKNS [L2A] gave an abundance fitness of -0.609 ± 0.07.
Work on TEEEDLKKLQLSEFFDIFEKEKVDKEALALCTDRDLQEIGIPLGPRKKILNYFSTRKNS [L2E] yielded an abundance fitness of -0.2 ± 0.086.
For TGEEDLKKLQLSEFFDIFEKEKVDKEALALCTDRDLQEIGIPLGPRKKILNYFSTRKNS [L2G], the abundance fitness was -0.607 ± 0.071.
Work on TLEEDLKKLQLSEFFDIFEKEKVDKEALALCTDRDLQEIGIVLGPRKKILNYFSTRKNS [P42V] yielded an abundance fitness of -1.01 ± 0.098.
Variant TLEEDLKKLQLSEFFDIFEKEKVDKEALALCTDRDLQEIGICLGPRKKILNYFSTRKNS [P42C] has an abundance fitness of -0.842 ± 0.17.
Variant TLEEDLKKLQLSEFFDIFEKENVDKEALALCTDRDLQEIGIPLGPRKKILNYFSTRKNS [K22N] has an abundance fitness of 0.381 ± 0.097.
TLEEDLKKLQLSEFFDIFEKEKVDKEALALCTDRDLQERGIPLGPRKKILNYFSTRKNS [I39R] showed an abundance fitness of -0.008 ± 0.065.
For TLEEDLKKLQLSEFFDIFEKEKVDKEALALCTDRDLQKIGIPLGPRKKILNYFSTRKNS [E38K], the abundance fitness was 0.299 ± 0.094.
TLEEDLKKLQLSEFFDIFEKEKVDKEALALCTDRDLQPIGIPLGPRKKILNYFSTRKNS [E38P] gave an abundance fitness of -0.888 ± 0.15.
With TLEEDLKKLNLSEFFDIFEKEKVDKEALALCTDRDLQEIGIPLGPRKKILNYFSTRKNS [Q10N] the abundance fitness was 0.011 ± 0.2.
In the case of TLEEDLKKLHLSEFFDIFEKEKVDKEALALCTDRDLQEIGIPLGPRKKILNYFSTRKNS [Q10H], the abundance fitness is reported as -0.138 ± 0.13.
Variant TLEEDLKKLQLSEFFDIFEKEKVDKEALALCTDRDLQEIGIPLGPRYKILNYFSTRKNS [K47Y] has an abundance fitness of -0.524 ± 0.18.
For TLEEDLKKLQLSEFFDIFEKEKVDKEALALCTDRDLQEIGIPLGPRQKILNYFSTRKNS [K47Q], the abundance fitness was 0.492 ± 0.1.
TLEEDLKKLQLSEFFDIFEKEKVDKEALALCTDRDLQEIGIPLGPRSKILNYFSTRKNS [K47S] gave an abundance fitness of 0.225 ± 0.069.
